Measurements as given in paper PMC7116876, “Mechanistic Insights into Regulation of the ALC1 Remodeler by the Nucleosome Acidic Patch” (Cell reports, 2020).

Tested on: sites of DNA damage in U2OS cells
Experiment: Recruitment of YFP-ALC1 to DNA breaks upon laser damage
Assay type: cell-based, Homo sapiens
Settings: YFP-ALC1 R860W background, 405 nm laser damage
Method: U2OS Flp-In T-REx cells were a kind gift from Durocher lab and maintained in DMEM medium (GIBCO/Thermo Fisher) supplemented with 10% FBS and Pen/Strep with 15.5 μg/ml zeocin (Invitrogen) and 4 μg/ml blasticidin. CRISPR inactivation of ALC1 was carried out in Flp-In T-REx U2OS cells by transiently expressing Cas9 and gRNA targeting Exon3 of ALC1 F-oligo: CACCGCAG GAAGATTAAATGATGAA R-oligo: […] with px459 (addgene) ([Ran et al., 2013]). Single cell clones were grown by limiting dilution and then screened for ALC1 expression by western blot. […]
Cells were seeded on 8 well Lab-Tek chamber slides (Thermo Fisher Scientific). […] In order to monitor the association kineticsof YFP-tagged ALC1 at sites of laser micro-irradiation, the time evolution of YFP fluorescence in the damaged region of interest was recorded upon excitation with a 488 nm laser. Recruitment of YFP to bleached ROIs was analyzed in FIJI ([Schindelin et al., 2012]) and data were processed in R. In brief, nuclear masks were segmented by local thresholding. […] In order to quantify recruitment, the mean YFP fluorescence intensities at a given time point t (It) were normalized to the mean initial fluorescence intensities I0 of the same region of interest. Normalized intensities were additionally multiplied with BGI0/BGIt to correct for photobleaching, where BGI represents the background fluorescence intensity. […]

B1: R611A/S612A: YFP-ALC1 with R611A/S612A linker mutation and R860W, expressed in U2OS cells (protein, UniProt Q86WJ1 1-897, looked up, variant R611A S612A R860W)
Chromodomain-helicase-DNA-bind …: MERAGATSRGGQAPGFLLRLHTEGRAEAARVQEQDLRQWGLTGIHLRSYQLEGVNWLAQRFHCQNGCILGDEMGLGKTCQTIALFIYLAGRLNDEGPFLILCPLSVLSNWKEEMQRFAPGLSCVTYAGDKEERACLQQDLKQESRFHVLLTTYEICLKDASFLKSFPWSVLVVDEAHRLKNQSSLLHKTLSEFSVVFSLLLTGTPIQNSLQELYSLLSFVEPDLFSKEEVGDFIQRYQDIEKESESASELHKLLQPFLLRRVKAEVATELPKKTEVVIYHGMSALQKKYYKAILMKDLDAFENETAKKVKLQNILSQLRKCVDHPYLFDGVEPEPFEVGDHLTEASGKLHLLDKLLAFLYSGGHRVLLFSQMTQMLDILQDYMDYRGYSYERVDGSVRGEERHLAIKNFGQQPIFVFLLSTRAGGVGMNLTAADTVIFVDSDFNPQNDLQAAARAHRIGQNKSVKVIRLIGRDTVEEIVYRKAASKLQLTNMIIEGGHFTLGAQKPAADADLQLSEILKFGLDKLLASEGSTMDEIDLESILGETKDGQWVSDALPAAEGGSRDQEEGKNHMYLFEGKDYSKEPSKEDRKSFEQLVNLQKTLLEKASQEGAALRNKGSVLIPGLVEGSTKRKRVLSPEELEDRQKKRQEAAAKRRRLIEEKKRQKEEAEHKKKMAWWESNNYQSFCLPSEESEPEDLENGEESSAELDYQDPDATSLKYVSGDVTHPQAGAEDALIVHCVDDSGHWGRGGLFTALEKRSAEPRKIYELAGKMKDLSLGGVLLFPVDDKESRNKGQDLLALIVAQHRDRSNVLSGIKMAALEEGLKKIFLAAKKKKASVHLPRIGHATKGFNWYGTERLIWKHLAARGIPTYIYYFPRSKSAVLHSQSSSSSSRQLVP
modifications: YFP fusion
notes: YFP-ALC1 with R611A/S612A linker mutation and R860W, expressed in U2OS cells
N ≥ 131 traces from 3 independent experiments
  overall extent of ALC1 recruitment to sites of DNA damage: notably compromised the overall extent of ALC1 recruitment
single-exponential half times, n ≥ 131 traces
  recruitment kinetics at sites of DNA damage: only modestly delayed recruitment kinetics
